The labels stand for the following.
B1: HDV Ribozyme (parent)
chain: GGCCGGCAUGGUCCCAGCCUCCUCGCUGGCGCCGGCUGGGCAACAUUCCGAGGGGACCGUCCCCUCGGUAAUGGCGAAUGGGACCCA

The results in this text go back to the RNAGym collection of RNA variant scans (doi:10.7554/elife.80360).

This data set covers variants of B1. The data set can be described thus: self-cleavage, relative activity (ratio to wild type); higher = more cleavage; co-transcriptional.
Turning to GGCCGGCAUGUUCCCAGCCUCCUCGCUGGCGCCGGCCGGGCAACAUUCCGAGGGGACCGUCCCCUCGGUAAUGGCGAAUGGGACCCA, the self-cleavage worked out at 0.208.
As for GGCCGGCAUGGACCCAGCCUCCUCGCUGGCGCCGGCUGGGCAGCAUUCCGAGGGGACCGUCCCCUCGGUAAUGGCGAAUGGGACCCA, the figure is 0.0831; as for GGCCGGCAUGGACCCAGCCUCCUCGCUGGCGCCGGCUGGGCACCAUUCCGAGGGGACCGUCCCCUCGGUAAUGGCGAAUGGGACCCA, 0.161; as for GGCCGGCAUGGACCCAGCCUCCUCGCUGGCGCCGGCUGGGCAACAUUCCGAGGGGGCCGUCCCCUCGGUAAUGGCGAAUGGGACCCA, 0.196.
On to GGCCGGCAUGGACCCAGCCUCCUCGCUGGCGCCGGCUGGGCAACAUUCCGAGGGGCCCGUCCCCUCGGUAAUGGCGAAUGGGACCCA, for which the self-cleavage stood at 0.262.
For GGCCGGCAUGGACCCAGCCUCCUCGCUGGCGCCGGCUGGGCAACAUUCCGAGGGGUCCGUCCCCUCGGUAAUGGCGAAUGGGACCCA the value was 0.403; for GGCCGGCAUGUUCCCAGCCUCCUCGCUGGCGCCGGCUGGGCAACAUUCCGAGGGGACCGUCCCCUCGGUAAUGGCGAAAGGGACCCA, 0.148.
As for GGCCGGCAUGUUCCCAGCCUCCUCGCUGGCGCCGGCUGGGCAACAUUCCGAGGGGACCGUCCCCUCGGUAAUGGCGAAGGGGACCCA, the figure is 0.231; as for GGCCGGCAUGUUCCCAGCCUCCUCGCUGGCGCCGGCUGGGCAACAUUCCGAGGGGACCGGCCCCUCGGUAAUGGCGAAUGGGACCCA, 0.381.
For GGCCGGCAUGUUCCCAGCCUCCUCGCUGGCGCCGGCUGGGCAACAUUCCGAGGGGACCGUCCCCUCGGCAAUGGCGAAUGGGACCCA, the self-cleavage was found to be 0.161.
On to GGCCGGCAUGUUCCCAGCCUCCUCGCUGGCGCCGGCUGGGCAACAUUCCGAGGGGACCGUCCCCUCGGAAAUGGCGAAUGGGACCCA, for which the self-cleavage turned out to be 0.317.
For GGCCGGCAUGUUCCCAGCCUCCUCGCUGGCGCCGGCUGGGCAACAUUCCGAGGGGACCGUCCCCUCGGGAAUGGCGAAUGGGACCCA the value was 0.309; for GGCCGGCAUGUUCCCAGCCUCCUCGCUGGCGCCGGCUGGGCAACAUCCCGAGGGGACCGUCCCCUCGGUAAUGGCGAAUGGGACCCA, 0.156.
For GGCCGGCAUGUUCCCAGCCUCCUCGCUGGCGCCGGCUGGGCAACAGUCCGAGGGGACCGUCCCCUCGGUAAUGGCGAAUGGGACCCA, the self-cleavage was found to be 0.285.
On to GGCCGGCAUGUUCCCAGCCUCCUCGCUGGCGCCGGCUGGGCAACAAUCCGAGGGGACCGUCCCCUCGGUAAUGGCGAAUGGGACCCA, for which the self-cleavage was 0.18.
As for GGCCGGCAUGGACCCAGCCUCCUCGCUGGCGCCGGCUGGGCAACCUUCCGAGGGGACCGUCCCCUCGGUAAUGGCGAAUGGGACCCA, the figure is 0; as for GGCCGGCAUGGACCCAGCCUCCUCGCUGGCGCCGGCUGGGCAACGUUCCGAGGGGACCGUCCCCUCGGUAAUGGCGAAUGGGACCCA, 0.277; as for GGCCGGCAUGGACCCAGCCUCCUCGCUGGCGCCGGCUGGGCAACUUUCCGAGGGGACCGUCCCCUCGGUAAUGGCGAAUGGGACCCA, 0.
For GGCCGGCAUGUUCCCAGCCUCCGCGCUGGCGCCGGCUGGGCAACAUUCCGAGGGGACCGUCCCCUCGGUAAUGGCGAAUGGGACCCA the value was 0.134.
For GGCCGGCAUGGACCCAGCCUCCUCGCUGGCGCCGGCUGGGCAACAUUCCGAGGGGACCGUCCCCUCGGUUAUGGCGAAUGGGACCCA the value was 0.332; for GGCCGGCAUGGACCCAGCCUCCUCGCUGGCGCCGGCUGGGCAACAUUCCGAGGGGACCGUCCCCUCGGUGAUGGCGAAUGGGACCCA, 0.277; for GGCCGGCAUGGACCCAGCCUCCUCGCUGGCGCCGGCUGGGCAACAUUCCGAGGGGACCGUCCCCUCGGUACUGGCGAAUGGGACCCA, 0.262.
For the variant GGCCGGCAUGGACCCAGCCUCCUCGCUGGCGCCGGCUGGGCAACAUUCCGAGGGGACCGUCCCCUCGGUAGUGGCGAAUGGGACCCA, the self-cleavage is 0.
In the case of GGCCGGCAUGUUCCCAGCCUCCUCGCCGGCGCCGGCUGGGCAACAUUCCGAGGGGACCGUCCCCUCGGUAAUGGCGAAUGGGACCCA, the self-cleavage was 0.388.
For GGCCGGCAUGUUCCCAGCCUCCUCGCUGGCGCCGGCUGGGCAACAUUCCGAGGGGACCGUCCCCUCGGUAAAGGCGAAUGGGACCCA the value was 0.287.
With GGCCGGCAUGUUCCCAGCCUCCUCGCUGGCGCCGGCUGGGCAACAUUCCGAGGGGACCGUCCCCUCGGUAAGGGCGAAUGGGACCCA, the self-cleavage worked out at 0.145.
For GGCCGGCAUGGACCCUGCCUCCUCGCUGGCGCCGGCUGGGCAACAUUCCGAGGGGACCGUCCCCUCGGUAAUGGCGAAUGGGACCCA the value was 0.32.
As for GGCCGGCAUGGACCCGGCCUCCUCGCUGGCGCCGGCUGGGCAACAUUCCGAGGGGACCGUCCCCUCGGUAAUGGCGAAUGGGACCCA, the figure is 0.383; as for GGCCGGCAUGGACCCAGCCUCCUCGCUGGCGCCGGCUGGGCAACAUUCCGCGGGGACCGUCCCCUCGGUAAUGGCGAAUGGGACCCA, 0.237.
For GGCCGGCAUGGACCCAGCCUCCUCGCUGGCGCCGGCUGGGCAACAUUCCGUGGGGACCGUCCCCUCGGUAAUGGCGAAUGGGACCCA the value was 0.277; for GGCCGGCAUGUUCCCAGCCUCCUCGCUGGCGCCGGCUGGGCAACAUUCCGAGGGGACCGUCCCCGCGGUAAUGGCGAAUGGGACCCA, 0.542; for GGCCGGCAUGUUCCCAGCCUCCUCGCUGGCGCCGGCUGGGCAACAUUCCGAGGGGACCGUCCCCCCGGUAAUGGCGAAUGGGACCCA, 0.19.
